First the molecules themselves.
B1: EEHEE_rd4_0469 (parent)
chain: ITIHVNGVTYHFDNPEEAEKFAQKMAKTYQLKMEIHNGEFHME

This series covers variants of B1. Description: folding stability dG (cDNA display proteolysis); higher = more stable. To be noted: PBS, room temperature.
As to ITIHVNGVTYHFDNPEEAEKFAQKMAKTYTLKMEIHNGEFHME [Q30T], the “folding stability dG” value came to 0.699 kcal/mol. With ITIHVNGVTYHFDNPEEAEKFAQKMAKTYSLKMEIHNGEFHME [Q30S], the “folding stability dG” value is 0.808 kcal/mol.

For the variant ITIHVNGVTYHFDNPEEAEKFAQKMAKTYFLKMEIHNGEFHME [Q30F], the “folding stability dG” value came out at 1.14 kcal/mol. As for ITIHVNGVTYHFDNPEEAEKFAQKMAKTYILKMEIHNGEFHME [Q30I], the figure is 0.708 kcal/mol; as for ITIHVNGVTYHFDNPEEAEKFAQKMAKTYNLKMEIHNGEFHME [Q30N], 1.17 kcal/mol. With ITIHVNGVTYHFDNPEEAEKFAQKMAKTYALKMEIHNGEFHME [Q30A] the figure was 1.02 kcal/mol; with ITIHVNGVTYHFDNPEEAEKFAQKMAKTYMLKMEIHNGEFHME [Q30M], 0.881 kcal/mol; with ITIHVNGVTYHFDNPEEAEKFAQKMAKTYLLKMEIHNGEFHME [Q30L], 0.853 kcal/mol.

ITIHVNGVTYHFDNPEEAEKFAQKMAKTYKLKMEIHNGEFHME [Q30K]: the “folding stability dG” value was 1.12 kcal/mol. With ITIHVNGVTYHFDNPEEAEKFAQKMAKTYWLKMEIHNGEFHME [Q30W] the figure was 1.11 kcal/mol; with ITIHVNGVTYHFDNPEEAEKFAQKMAKTYHLKMEIHNGEFHME [Q30H], 1.43 kcal/mol.

With ITIHVNGVTYHFDNPEEAEKFAQKMAKTYDLKMEIHNGEFHME [Q30D], the “folding stability dG” value was determined as 1.08 kcal/mol. With ITIHVNGVTYHFDNPEEAEKFAQKMAKTYRLKMEIHNGEFHME [Q30R] the figure was 0.814 kcal/mol. As for ITIHVNGVTYHFDNPEEAEKFAQKMAKTYVLKMEIHNGEFHME [Q30V], the “folding stability dG” value was 0.688 kcal/mol. As for ITIHVNGVTYHFDNPEEAEKFAQKMAKTYQPKMEIHNGEFHME [L31P], the figure is 1.13 kcal/mol. As for ITIHVNGVTYHFDNPEEAEKFAQKMAKTYQKKMEIHNGEFHME [L31K], the “folding stability dG” value was determined as 0.692 kcal/mol. With ITIHVNGVTYHFDNPEEAEKFAQKMAKTYQAKMEIHNGEFHME [L31A] the figure was 0.799 kcal/mol; with ITIHVNGVTYHFDNPEEAEKFAQKMAKTYQIKMEIHNGEFHME [L31I], 1.15 kcal/mol. As for ITIHVNGVTYHFDNPEEAEKFAQKMAKTYQDKMEIHNGEFHME [L31D], the “folding stability dG” value is 1.3 kcal/mol.

For the variant ITIHVNGVTYHFDNPEEAEKFAQKMAKTYQYKMEIHNGEFHME [L31Y], the “folding stability dG” value was 1.14 kcal/mol. As to ITIHVNGVTYHFDNPEEAEKFAQKMAKTYQMKMEIHNGEFHME [L31M], the “folding stability dG” value came out at 1.01 kcal/mol. As for ITIHVNGVTYHFDNPEEAEKFAQKMAKTYQQKMEIHNGEFHME [L31Q], the figure is 0.833 kcal/mol.

Regarding ITIHVNGVTYHFDNPEEAEKFAQKMAKTYQNKMEIHNGEFHME [L31N], the “folding stability dG” value turned out to be 1 kcal/mol. As for ITIHVNGVTYHFDNPEEAEKFAQKMAKTYQHKMEIHNGEFHME [L31H], the figure is 0.984 kcal/mol; as for ITIHVNGVTYHFDNPEEAEKFAQKMAKTYQTKMEIHNGEFHME [L31T], 0.775 kcal/mol. With ITIHVNGVTYHFDNPEEAEKFAQKMAKTYQFKMEIHNGEFHME [L31F] the figure was 1.1 kcal/mol; with ITIHVNGVTYHFDNPEEAEKFAQKMAKTYQRKMEIHNGEFHME [L31R], 0.214 kcal/mol; with ITIHVNGVTYHFDNPEEAEKFAQKMAKTYQVKMEIHNGEFHME [L31V], 1.28 kcal/mol. As for ITIHVNGVTYHFDNPEEAEKFAQKMAKTYQSKMEIHNGEFHME [L31S], the “folding stability dG” value was found to be 0.767 kcal/mol. As for ITIHVNGVTYHFDNPEEAEKFAQKMAKTYQEKMEIHNGEFHME [L31E], the figure is 1.29 kcal/mol; as for ITIHVNGVTYHFDNPEEAEKFAQKMAKTYQGKMEIHNGEFHME [L31G], 1.02 kcal/mol; as for ITIHVNGVTYHFDNPEEAEKFAQKMAKTYQCKMEIHNGEFHME [L31C], 2.3 kcal/mol. With ITIHVNGVTYHFDNPEEAEKFAQKMAKTYQWKMEIHNGEFHME [L31W] the figure was 0.829 kcal/mol. As for ITIHVNGVTYHFDNPEEAEKFAQKMAKTYQLKHEIHNGEFHME [M33H], the figure is 0.293 kcal/mol; as for ITIHVNGVTYHFDNPEEAEKFAQKMAKTYQLKKEIHNGEFHME [M33K], -0.407 kcal/mol; as for ITIHVNGVTYHFDNPEEAEKFAQKMAKTYQLKPEIHNGEFHME [M33P], 0.368 kcal/mol. With ITIHVNGVTYHFDNPEEAEKFAQKMAKTYQLKAEIHNGEFHME [M33A], the “folding stability dG” value turned out to be 0.574 kcal/mol. With ITIHVNGVTYHFDNPEEAEKFAQKMAKTYQLKQEIHNGEFHME [M33Q] the figure was 0.352 kcal/mol. As for ITIHVNGVTYHFDNPEEAEKFAQKMAKTYQLKYEIHNGEFHME [M33Y], the figure is 1.11 kcal/mol; as for ITIHVNGVTYHFDNPEEAEKFAQKMAKTYQLKEEIHNGEFHME [M33E], 0.678 kcal/mol; as for ITIHVNGVTYHFDNPEEAEKFAQKMAKTYQLKIEIHNGEFHME [M33I], 1.6 kcal/mol. As for ITIHVNGVTYHFDNPEEAEKFAQKMAKTYQLKSEIHNGEFHME [M33S], the figure is 0.431 kcal/mol; as for ITIHVNGVTYHFDNPEEAEKFAQKMAKTYQLKNEIHNGEFHME [M33N], 0.297 kcal/mol. As for ITIHVNGVTYHFDNPEEAEKFAQKMAKTYQLKVEIHNGEFHME [M33V], the “folding stability dG” value came to 1.46 kcal/mol. With ITIHVNGVTYHFDNPEEAEKFAQKMAKTYQLKCEIHNGEFHME [M33C], the “folding stability dG” value was 2.62 kcal/mol. With ITIHVNGVTYHFDNPEEAEKFAQKMAKTYQLKDEIHNGEFHME [M33D], the “folding stability dG” value came to 0.558 kcal/mol.

For the variant ITIHVNGVTYHFDNPEEAEKFAQKMAKTYQLKLEIHNGEFHME [M33L], the “folding stability dG” value was determined as 1.43 kcal/mol.

Turning to ITIHVNGVTYHFDNPEEAEKFAQKMAKTYQLKFEIHNGEFHME [M33F], the “folding stability dG” value was found to be 1.18 kcal/mol. As for ITIHVNGVTYHFDNPEEAEKFAQKMAKTYQLKWEIHNGEFHME [M33W], the figure is 1.36 kcal/mol. With ITIHVNGVTYHFDNPEEAEKFAQKMAKTYQLKGEIHNGEFHME [M33G] the figure was 0.452 kcal/mol; with ITIHVNGVTYHFDNPEEAEKFAQKMAKTYQLKTEIHNGEFHME [M33T], 0.664 kcal/mol; with ITIHVNGVTYHFDNPEEAEKFAQKMAKTYQLKMEIDNGEFHME [H36D], 0.709 kcal/mol. As for ITIHVNGVTYHFDNPEEAEKFAQKMAKTYQLKMEICNGEFHME [H36C], the figure is 1.69 kcal/mol.

With ITIHVNGVTYHFDNPEEAEKFAQKMAKTYQLKMEIANGEFHME [H36A], the “folding stability dG” value was 0.796 kcal/mol. With ITIHVNGVTYHFDNPEEAEKFAQKMAKTSQLKMEIHNGEFHME [Y29S] the figure was 1.05 kcal/mol; with ITIHVNGVTYHFDNPEEAEKFAQKMAKTWQLKMEIHNGEFHME [Y29W], 0.793 kcal/mol; with ITIHVNGVTYHFDNPEEAEKFAQKMAKTTQLKMEIHNGEFHME [Y29T], 1.05 kcal/mol. With ITIHVNGVTYHFDNPEEAEKFAQKMAKTVQLKMEIHNGEFHME [Y29V] the figure was 0.848 kcal/mol; with ITIHVNGVTYHFDNPEEAEKFAQKMAKTRQLKMEIHNGEFHME [Y29R], 0.657 kcal/mol.

For the origin of these results see the MegaScale stability set (Tsuboyama et al. 2023).
